Test results reported in US20110086028A1.

Assays:
[1] = molecular target: full length gp-340 (exon 1-54) expressed on the surface of 293 cells transfected with pDEST-DMBT1 (clone 1D4) (UniProt Q9UGM3); assay: cell-based or functional assay
[2] = molecular target: endogenous cell-associated gp-340 on human cell lines (AGS, VK2E6E7, Endo1E6E7, Ect1E6E7, HEC1A, untransfected 293) and human vaginal and cervical tissue (human) (UniProt Q9UGM3); assay: cell-based or functional assay
endogenous cell-associated gp-340 on human cell lines (AGS, VK2E6E7, Endo1E6E7, Ect1E6E7, HEC1A, untransfected 293) and human vaginal and cervical tissue (human), sequence (Q9UGM3 20-2413): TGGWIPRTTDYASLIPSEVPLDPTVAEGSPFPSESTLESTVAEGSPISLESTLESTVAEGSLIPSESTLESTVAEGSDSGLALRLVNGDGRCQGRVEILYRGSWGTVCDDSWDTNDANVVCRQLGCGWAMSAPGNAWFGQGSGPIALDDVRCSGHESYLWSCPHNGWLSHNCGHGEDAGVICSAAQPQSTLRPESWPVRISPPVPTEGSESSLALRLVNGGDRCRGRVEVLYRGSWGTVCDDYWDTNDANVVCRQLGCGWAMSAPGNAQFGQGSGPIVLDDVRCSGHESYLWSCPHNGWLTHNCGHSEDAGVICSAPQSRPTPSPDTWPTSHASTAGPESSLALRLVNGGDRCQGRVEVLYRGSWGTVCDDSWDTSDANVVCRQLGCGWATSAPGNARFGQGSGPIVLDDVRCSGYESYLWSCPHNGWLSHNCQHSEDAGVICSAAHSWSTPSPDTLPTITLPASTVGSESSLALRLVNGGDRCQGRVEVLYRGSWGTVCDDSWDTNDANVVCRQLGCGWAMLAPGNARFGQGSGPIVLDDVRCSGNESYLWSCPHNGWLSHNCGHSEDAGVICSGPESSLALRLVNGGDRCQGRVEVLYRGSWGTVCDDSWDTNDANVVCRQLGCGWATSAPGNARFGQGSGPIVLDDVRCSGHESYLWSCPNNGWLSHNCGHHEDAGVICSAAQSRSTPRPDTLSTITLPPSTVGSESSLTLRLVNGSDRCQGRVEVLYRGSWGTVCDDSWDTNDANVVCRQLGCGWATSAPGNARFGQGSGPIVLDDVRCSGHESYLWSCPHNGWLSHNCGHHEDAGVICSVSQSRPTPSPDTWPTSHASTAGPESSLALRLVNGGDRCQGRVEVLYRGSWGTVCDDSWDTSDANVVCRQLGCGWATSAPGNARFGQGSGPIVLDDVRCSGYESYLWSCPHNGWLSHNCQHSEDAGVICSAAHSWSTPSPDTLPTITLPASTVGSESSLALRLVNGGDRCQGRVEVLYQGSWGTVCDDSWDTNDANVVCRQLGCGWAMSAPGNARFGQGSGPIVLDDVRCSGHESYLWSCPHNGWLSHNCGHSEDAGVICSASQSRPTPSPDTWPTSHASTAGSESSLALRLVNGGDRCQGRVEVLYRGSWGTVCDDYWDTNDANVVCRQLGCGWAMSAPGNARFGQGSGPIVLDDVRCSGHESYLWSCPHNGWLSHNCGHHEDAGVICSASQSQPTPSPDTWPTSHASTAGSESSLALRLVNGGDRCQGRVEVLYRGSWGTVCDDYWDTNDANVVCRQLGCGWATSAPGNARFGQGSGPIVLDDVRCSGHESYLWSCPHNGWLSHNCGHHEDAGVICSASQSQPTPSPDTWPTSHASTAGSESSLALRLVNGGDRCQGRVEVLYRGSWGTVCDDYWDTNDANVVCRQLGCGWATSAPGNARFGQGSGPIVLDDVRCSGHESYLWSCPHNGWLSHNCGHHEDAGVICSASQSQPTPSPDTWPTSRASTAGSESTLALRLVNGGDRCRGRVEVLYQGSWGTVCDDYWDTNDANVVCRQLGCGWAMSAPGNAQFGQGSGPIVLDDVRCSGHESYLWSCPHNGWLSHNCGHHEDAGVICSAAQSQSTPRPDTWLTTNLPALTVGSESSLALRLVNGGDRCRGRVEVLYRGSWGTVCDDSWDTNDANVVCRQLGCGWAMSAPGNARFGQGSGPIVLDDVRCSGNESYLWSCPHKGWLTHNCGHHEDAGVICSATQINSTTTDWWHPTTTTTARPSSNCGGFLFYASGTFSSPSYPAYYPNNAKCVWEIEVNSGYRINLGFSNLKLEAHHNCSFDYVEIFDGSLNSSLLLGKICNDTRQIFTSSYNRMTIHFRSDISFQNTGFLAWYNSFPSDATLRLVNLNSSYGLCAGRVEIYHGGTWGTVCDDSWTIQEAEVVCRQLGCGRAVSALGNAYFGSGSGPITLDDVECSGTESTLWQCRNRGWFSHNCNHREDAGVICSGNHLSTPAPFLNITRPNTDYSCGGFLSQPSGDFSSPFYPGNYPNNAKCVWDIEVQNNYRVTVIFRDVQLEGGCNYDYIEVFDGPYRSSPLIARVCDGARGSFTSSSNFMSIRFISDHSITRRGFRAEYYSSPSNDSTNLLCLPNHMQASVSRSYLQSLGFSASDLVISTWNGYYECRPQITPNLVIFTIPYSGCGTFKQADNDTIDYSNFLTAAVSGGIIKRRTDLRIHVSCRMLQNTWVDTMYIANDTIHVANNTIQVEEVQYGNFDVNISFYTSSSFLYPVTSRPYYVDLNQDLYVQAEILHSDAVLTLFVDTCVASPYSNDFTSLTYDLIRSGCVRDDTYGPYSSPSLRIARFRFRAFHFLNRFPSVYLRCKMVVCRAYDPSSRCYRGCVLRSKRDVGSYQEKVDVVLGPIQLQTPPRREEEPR

full length gp-340 (exon 1-54) expressed on the surface of 293 cells transfected with pDEST-DMBT1 (clone 1D4), sequence (Q9UGM3 20-2413 limits assumed, change not shown): as the sequence (Q9UGM3 20-2413) above

Question: How did the TCID50 of added virus in trans-infection to PHA-blasts, gp-340 expressing 293 cells against non-exogenously expressing 293 cells [1] turn out when “HIV-1 Env (gp120) of primary M-tropic strain BL2, on virus particles” was run?
Answer: 6 fold

Question: And the mean P24 in 6 wells, clone 1D4 without peptide 6284, 0.11 IU [1]?
Answer: 184

Question: What about the mean P24 in 6 wells, clone 1D4 without peptide 6284, 0.33 IU [1] of the same substance?
Answer: 239

Question: And the percentage of wells infected at 0.11 IU of HIV added (trans-infection, gp-340 expressing 293 cells) [1]?
Answer: 50%

Question: And the percentage of wells infected at 0.33 IU of HIV added (trans-infection, gp-340 expressing 293 cells) [1]?
Answer: 100%

Question: And the enhancement in viral infectivity (AGS cell trans-infection) [2]?
Answer: 6 fold

Question: What about the viral input at which cells were infected in 50% of the wells (AGS cell trans-infection) [2] of the same substance?
Answer: 0.08 IU
